Measurements from patent US20240247080A1, “GLP1/GIP/NPY2 RECEPTOR TRIPLE AGONISTS” (Boehringer Ingelheim International GmbH, priority 2022, published 2024).
Numbering of substitutions follows the chain as printed. Starred links: 1 amine or outer side, 2 acyl side, 3 side chain; linkers in the order of their positions; H or OH if unused. Non-standard residues stand in square brackets, D forms with d. Groups on a side chain read outwards from the residue. No end group written: not given here. *: point of attachment. C20 diacid = O=C(O)CCCCCCCCCCCCCCCCCCC(=O)*; γGlu = O=C(O)[C@H](CCC(=O)[*:2])N[*:1]; εLys = N[C@@H](CCCCN[*:1])C(=O)[*:2]; AEEA = NCCOCCOCC(=O)O; Aib = CC(C)(N)C(=O)O

T1: human GIP receptor (human, UniProt P48546 22-466)
T1 sequence (looked up): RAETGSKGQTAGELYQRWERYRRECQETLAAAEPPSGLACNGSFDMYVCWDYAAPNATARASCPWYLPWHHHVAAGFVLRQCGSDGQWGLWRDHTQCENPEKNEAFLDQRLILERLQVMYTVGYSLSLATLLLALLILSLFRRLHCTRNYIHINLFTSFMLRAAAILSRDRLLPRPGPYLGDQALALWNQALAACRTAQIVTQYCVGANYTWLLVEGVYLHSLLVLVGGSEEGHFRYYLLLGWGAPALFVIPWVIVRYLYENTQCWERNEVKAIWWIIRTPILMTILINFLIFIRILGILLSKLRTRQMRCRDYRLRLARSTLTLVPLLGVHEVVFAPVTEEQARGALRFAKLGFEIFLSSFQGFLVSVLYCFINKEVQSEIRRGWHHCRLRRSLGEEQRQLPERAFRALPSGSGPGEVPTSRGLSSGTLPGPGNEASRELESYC

T2: human neuropeptide Y2 receptor (human, UniProt P49146 1-381)
T2 sequence (looked up): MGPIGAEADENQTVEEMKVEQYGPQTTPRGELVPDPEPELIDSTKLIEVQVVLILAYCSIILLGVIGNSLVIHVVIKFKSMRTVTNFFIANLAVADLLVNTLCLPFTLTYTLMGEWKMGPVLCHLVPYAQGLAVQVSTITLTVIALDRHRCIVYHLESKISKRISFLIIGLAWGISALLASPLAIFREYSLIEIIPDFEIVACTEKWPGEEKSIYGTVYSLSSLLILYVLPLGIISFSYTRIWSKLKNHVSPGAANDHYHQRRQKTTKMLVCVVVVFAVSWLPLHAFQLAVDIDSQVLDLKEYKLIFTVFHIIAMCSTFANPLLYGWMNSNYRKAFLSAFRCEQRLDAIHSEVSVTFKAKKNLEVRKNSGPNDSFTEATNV

B1: Compound 98 (peptide)
peptide: YXEGTFTSDYSIXLEKQAQXAFVEWLIKGGPSSAASLRHYYNWLTRQRY
modifications: Aib at 2, 13, 20; K28 side chain: C20DA-gGlu-gGlu-gGlu-gGlu-gGlu-gGlu-eLys; C-terminal NH2
B2: Compound 99 (peptide)
peptide: B1 peptide with K16G, A34G
modifications: Aib at 2, 13, 20; K28 side chain: C20DA-gGlu-gGlu-gGlu-gGlu-gGlu-gGlu-eLys; C-terminal NH2
B3: Compound 102 (peptide)
peptide: B1 peptide with K16A, A34G
modifications: Aib at 2, 13, 20; K28 side chain: C20DA-gGlu-gGlu-gGlu-gGlu-gGlu-gGlu-eLys; C-terminal NH2
B4: Compound 103 (peptide)
peptide: B1 peptide with A34G, L37X
modifications: Aib at 2, 13, 20; Tle at 37; K28 side chain: C20DA-gGlu-gGlu-gGlu-gGlu-gGlu-gGlu-eLys; C-terminal NH2
B5: Compound 104 (peptide)
peptide: B1 peptide with X13L, A34G
modifications: Aib at 2, 20; K28 side chain: C20DA-gGlu-Glu-gGlu-gGlu-gGlu-gGlu-eLys; C-terminal NH2
B6: Compound 106 (peptide)
peptide: B1 peptide with A34G, Y41I
modifications: Aib at 2, 13, 20; K28 side chain: C20DA-gGlu-gGlu-gGlu-gGlu-gGlu-gGlu-eLys; C-terminal NH2
B7: Compound 107 (peptide)
peptide: B1 peptide with A34G, A35L
modifications: Aib at 2, 13, 20; K28 side chain: C20DA-gGlu-gGlu-gGlu-gGlu-gGlu-gGlu-eLys; C-terminal NH2
B8: Compound 111 (peptide)
peptide: B1 peptide with E24Q, S33E, A34P
modifications: Aib at 2, 13, 20; K28 side chain: C20DA-gGlu-gGlu-gGlu-gGlu-gGlu-OEG-OEG; C-terminal NH2
B9: Compound 112 (peptide)
peptide: B1 peptide with E24Q, A34G
modifications: Aib at 2, 13, 20; K28 side chain: C20DA-gGlu-gGlu-gGlu-gGlu-gGlu-OEG-OEG; C-terminal NH2
B10: Compound 114 (peptide)
peptide: B1 peptide with E24Q, S33E, A34G, A35V
modifications: Aib at 2, 13, 20; K28 side chain: C20DA-gGlu-gGlu-gGlu-gGlu-gGlu-gGlu-eLys; C-terminal NH2
B11: Compound 115 (peptide)
peptide: B1 peptide with E24Q, S33E, A34G
modifications: Aib at 2, 13, 20; NMeQ at 47; K28 side chain: C20DA-gGlu-gGlu-gGlu-gGlu-gGlu-gGlu-eLys; C-terminal NH2
B12: Compound 116 (peptide)
peptide: B1 peptide with K16E, A34G
modifications: Aib at 2, 13, 20; K28 side chain: C20DA-gGlu-gGlu-gGlu-gGlu-gGlu-gGlu-eLys; C-terminal NH2
B13: Compound 117 (peptide)
peptide: B1 peptide with A34G, L37V
modifications: Aib at 2, 13, 20; K28 side chain: C20DA-gGlu-gGlu-gGlu-gGlu-gGlu-gGlu-eLys; C-terminal NH2
B14: Compound 118 (peptide)
peptide: B1 peptide with A34G, L37X
modifications: Aib at 2, 13, 20, 37; K28 side chain: C20DA-gGlu-gGlu-gGlu-gGlu-gGlu-gGlu-eLys; C-terminal NH2
B15: Compound 119 (peptide)
peptide: B1 peptide with A34G, H39X
modifications: Aib at 2, 13, 20; Tle at 39; K28 side chain: C20DA-gGlu-gGlu-gGlu-gGlu-gGlu-gGlu-eLys; C-terminal NH2

Key:
Test in all cases: cell-based or functional assay
[1] = biological target: T1, human GIP receptor
[2] = biological target: T2, human neuropeptide Y2 receptor
[3] = biological target: human GLP-1 receptor (human, UniProt P43220 24-463)

Binder	EC50 CreLuc hGIPR 0.5% hP [1] [nM]	EC50 CreLuc hGIPR 100% hP [1] [nM]	EC50 CreLuc hNPY2R 0.5% hP [2] [nM]	EC50 CreLuc hNPY2R 100% hP [2] [nM]	EC50 CreLuc hGLP1R 0.5% hP [3] [nM]	EC50 CreLuc hGLP1R 100% hP [3] [nM]
Y[Aib]EGTFTSDYSI[Aib]LEEQAQ[Aib]AFVEWLIK([εLys-γGlu-γGlu-γGlu-γGlu-C20 diacid])GGPSSGASLRHYYNWLTRQRY-NH2 [Compound 97]	0.14	0.95	14.9	70.4	0.15	3.08
B1	0.44	3.41	15.1	64.2	0.31	8.22
B2	0.91	8.52	16.8	85.9	0.41	6.72
Y[Aib]EGTFTSDYSI[Aib]LEEQAQ[Aib]AFVEWLIKGGPSSGASLRHYYNWLTRQRY-NH2 (not fully specified (residue 28)) [Compound 100]	0.1	0.87	11.2	48	0.12	2.21
Y[Aib]EGTFTSDYSI[Aib]LEKQAQ[Aib]AFVQWLIKGGPSEPASLRHYYNWLTRQRY-NH2 (not fully specified (residue 28)) [Compound 101]	0.15	1.43	12.1	26.5	0.1	2.5
B3	0.98	4.01	24.9	80.7	0.33	3.48
B4	0.26	1.73	12	50.7	0.13	3.19
B5	0.06	0.6	13.4	50.7	0.09	2.06
Y[Aib]EGTFTSDYSI[Aib]LEEQAQ[Aib]AFVEWLIKGGPSSGASLRHYYNWLTRQRY-NH2 (not fully specified (residue 28)) [Compound 105]	0.2	0.87	10.4	69	0.14	1.66
B6	0.26	2.17	20.5	74.2	0.14	3.56
B7	0.27	0.99	16.7	58.5	0.13	1.88
Y[Aib]EGTFTSDYSI[Aib]LEKQAQ[Aib]AFVQWLIKGGPEEGASLRHYYNWLTRQRY-NH2 (not fully specified (residue 28)) [Compound 108]	0.3	2.14	14.8	57.4	0.4	6.16
Y[Aib]EGTFTSDYSI[Aib]LEKQAQ[Aib]AFVEWLLKGGPSSGASLRHYYNWLTRQRY-NH2 (not fully specified (residue 28)) [Compound 109]	0.09	0.64	10.8	52.2	0.28	3.32
Y[Aib]EGTFTSDYSI[Aib]LEEQAQ[Aib]AFVEWLIK([εLys-AEEA-γGlu-γGlu-γGlu-γGlu-γGlu-C20 diacid])GGPSSGASLRHYYNWLTRQRY-NH2 [Compound 110]	0.15	1.14	17.5	42.5	0.15	1.53
B8	0.55	1.96	13.4	36.8	0.12	5.32
B9	0.19	0.83	8.05	27.6	0.06	1.7
Y[Aib]EGTFTSDLSI[Aib]LEKQAQ[Aib]AFVQWLIKGGPSEGASLRHYYNWLTRQRY-NH2 (not fully specified (residue 28)) [Compound 113]	0.56	3.84	19.5	49.9	0.19	3.72
B10	0.27	2.34	7.73	44.8	0.15	5.56
B11	0.51	1.89	7.8	30.6	0.12	3.45
B12	0.43	3.01	13.5	85.7	0.14	2.48
B13	0.14	1.18	6.81	24.6	0.13	1.8
B14	0.06	0.55	6.2	26.2	0.05	0.84
B15	0.63	4.31	23.1	80.1	0.26	4.46
